Molecular target: 16055 gp120 (HIV-1 clade C clinical isolate 16055)
Assay: ELISA

B1: GM7_TH2 mAb (antibody, V domains shown)
VH: QVQLVQSGTEVKQPGASVKVSCKASGYTFTGYGMNWVRQAHGQRLEWMGWINTETGHPTYAQGFKERFTFSMDTSISTAYLQINSLKPEDTAIYYCARFSGLHSVAVFEYWGQGVLVTVSS
VL: SSGLTQEPALSVALGHTVRMTCQGDSLKTYYATWYQQKPGQVPVLVIYDNNYRPSGIPGRFSVSWSGDTNSLTITAAQVEDEADYYCNSWDSSGTHLLFGGGTRLTVL
  binding result: binds

From publication PMC7041718 (The Journal of Experimental Medicine, 2019)
